Values belong to the substance of their own block, whether it stands above or below them.
Assays:
Assay in all cases: anti-Flag IP-MS, mES nuclear extract
Smc4 (mouse) = Smc4 (mouse) (UniProt Q8CG47)
Pum2 (mouse) = Pum2 (mouse) (UniProt Q80U58)
Eef2 (mouse) = Eef2 (mouse) (UniProt P58252)
Cbx5 (mouse) = Cbx5 (mouse) (UniProt Q61686)
Supt5h (mouse) = Supt5h (mouse) (UniProt O55201)
Mcm6 (mouse) = Mcm6 (mouse) (UniProt P97311)
Rcc1 (mouse) = Rcc1 (mouse) (UniProt Q8VE37)
Hspa5 (mouse) = Hspa5 (mouse) (UniProt P20029)
Ssr1 (mouse) = Ssr1 (mouse) (UniProt Q9CY50)
Cct6a (mouse) = Cct6a (mouse) (UniProt P80317)
Cct2 (mouse) = Cct2 (mouse) (UniProt P80314)
Prpf4 (mouse) = Prpf4 (mouse) (UniProt Q9DAW6)
[1] = biological target: LOC100045999; Ran (mouse) (UniProt P62827)
Kpnb1 (mouse) = Kpnb1 (mouse) (UniProt P70168)
Ssrp1 (mouse) = Ssrp1 (mouse) (UniProt Q08943)
Dars (mouse) = Dars (mouse) (UniProt Q922B2)
Mcm4 (mouse) = Mcm4 (mouse) (UniProt P49717)
Dync1h1 (mouse) = Dync1h1 (mouse) (UniProt Q9JHU4)
Ywhae (mouse) = Ywhae (mouse) (UniProt P62259)
Utf1 (mouse) = Utf1 (mouse) (UniProt Q6J1H4)
Dnmt3l (mouse) = Dnmt3l (mouse) (UniProt Q9CWR8)
Tmem48 (mouse) = Tmem48 (mouse) (UniProt Q8VCB1)
Upf1 (mouse) = Upf1 (mouse) (UniProt Q9EPU0)
Akr1b3 (mouse) = Akr1b3 (mouse) (UniProt P45376)
Gm1040 (mouse) = Gm1040 (mouse) (UniProt Q3UFM5)
Ranbp1 (mouse) = Ranbp1 (mouse) (UniProt P34022)
Cttn (mouse) = Cttn (mouse) (UniProt Q60598)
Aff1 (mouse) = Aff1 (mouse) (UniProt O88573)
Zfp281 (mouse) = Zfp281 (mouse) (UniProt Q99LI5)
Wapal (mouse) = Wapal (mouse) (UniProt Q65Z40)
Ints3 (mouse) = Ints3 (mouse) (UniProt Q7TPD0)
Smpd4 (mouse) = Smpd4 (mouse) (UniProt Q6ZPR5)
Akap8 (mouse) = Akap8 (mouse) (UniProt Q9DBR0)
Cct7 (mouse) = Cct7 (mouse) (UniProt P80313)
Hmga1 (mouse) = Hmga1 (mouse) (UniProt P17095)
Pum1 (mouse) = Pum1 (mouse) (UniProt Q80U78)
Etl4 (mouse) = Etl4 (mouse) (UniProt A2AQ25)
Ruvbl1 (mouse) = Ruvbl1 (mouse) (UniProt P60122)
Mtap1b (mouse) = Mtap1b (mouse) (UniProt P14873)
Pfkl (mouse) = Pfkl (mouse) (UniProt P12382)

Ywhae (mouse), sequence (P62259 whole entry): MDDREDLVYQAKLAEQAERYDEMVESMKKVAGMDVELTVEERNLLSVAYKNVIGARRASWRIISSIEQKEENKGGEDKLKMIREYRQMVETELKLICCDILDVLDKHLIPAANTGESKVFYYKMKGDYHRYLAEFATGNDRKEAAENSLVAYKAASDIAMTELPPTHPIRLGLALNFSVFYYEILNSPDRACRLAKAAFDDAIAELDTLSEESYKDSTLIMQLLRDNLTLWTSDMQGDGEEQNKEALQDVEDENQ
Mcm6 (mouse), sequence (P97311 whole entry): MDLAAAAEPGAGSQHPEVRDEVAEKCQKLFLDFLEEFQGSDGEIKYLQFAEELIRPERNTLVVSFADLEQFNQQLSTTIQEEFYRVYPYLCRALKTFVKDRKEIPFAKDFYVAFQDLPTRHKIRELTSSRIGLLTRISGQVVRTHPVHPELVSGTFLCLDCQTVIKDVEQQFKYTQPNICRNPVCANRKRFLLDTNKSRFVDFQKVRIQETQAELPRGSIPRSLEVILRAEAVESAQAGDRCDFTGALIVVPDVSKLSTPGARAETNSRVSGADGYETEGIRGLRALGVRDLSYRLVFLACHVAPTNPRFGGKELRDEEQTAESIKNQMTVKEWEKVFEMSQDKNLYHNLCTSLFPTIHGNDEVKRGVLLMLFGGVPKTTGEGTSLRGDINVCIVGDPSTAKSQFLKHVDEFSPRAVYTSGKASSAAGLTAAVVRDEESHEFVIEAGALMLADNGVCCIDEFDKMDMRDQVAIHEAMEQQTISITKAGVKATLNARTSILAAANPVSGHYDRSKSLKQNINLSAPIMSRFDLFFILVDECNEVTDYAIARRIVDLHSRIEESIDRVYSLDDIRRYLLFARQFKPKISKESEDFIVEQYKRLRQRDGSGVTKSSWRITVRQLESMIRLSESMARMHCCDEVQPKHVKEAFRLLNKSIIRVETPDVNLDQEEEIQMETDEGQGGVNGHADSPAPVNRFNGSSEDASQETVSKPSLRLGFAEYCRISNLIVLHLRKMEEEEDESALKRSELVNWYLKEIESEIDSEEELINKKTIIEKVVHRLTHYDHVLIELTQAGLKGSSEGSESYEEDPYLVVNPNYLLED
Zfp281 (mouse), sequence (Q99LI5 whole entry): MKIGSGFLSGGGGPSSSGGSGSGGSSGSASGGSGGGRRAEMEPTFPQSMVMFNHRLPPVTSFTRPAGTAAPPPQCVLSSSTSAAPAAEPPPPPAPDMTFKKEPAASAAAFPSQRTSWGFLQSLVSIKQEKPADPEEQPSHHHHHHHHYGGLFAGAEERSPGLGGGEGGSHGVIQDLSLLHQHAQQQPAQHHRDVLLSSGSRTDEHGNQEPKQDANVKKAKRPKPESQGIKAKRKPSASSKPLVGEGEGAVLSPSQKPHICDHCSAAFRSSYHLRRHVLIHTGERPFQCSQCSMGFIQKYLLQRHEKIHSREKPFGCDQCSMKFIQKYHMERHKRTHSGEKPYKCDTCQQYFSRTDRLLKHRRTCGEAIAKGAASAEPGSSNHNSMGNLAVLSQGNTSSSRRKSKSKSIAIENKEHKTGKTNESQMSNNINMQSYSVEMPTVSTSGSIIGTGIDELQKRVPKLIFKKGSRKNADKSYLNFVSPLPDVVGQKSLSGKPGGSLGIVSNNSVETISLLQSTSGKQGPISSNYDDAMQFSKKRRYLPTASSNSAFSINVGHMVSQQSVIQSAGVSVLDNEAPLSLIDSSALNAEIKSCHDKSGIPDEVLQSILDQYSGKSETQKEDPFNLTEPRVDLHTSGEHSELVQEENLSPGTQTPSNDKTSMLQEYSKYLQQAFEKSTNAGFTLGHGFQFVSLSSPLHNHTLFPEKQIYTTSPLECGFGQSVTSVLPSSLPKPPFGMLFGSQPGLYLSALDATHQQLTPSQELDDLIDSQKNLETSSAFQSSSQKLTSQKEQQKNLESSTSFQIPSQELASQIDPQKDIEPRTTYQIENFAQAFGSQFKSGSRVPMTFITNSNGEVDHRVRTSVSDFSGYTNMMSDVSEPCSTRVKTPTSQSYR
Ints3 (mouse), sequence (Q7TPD0 whole entry): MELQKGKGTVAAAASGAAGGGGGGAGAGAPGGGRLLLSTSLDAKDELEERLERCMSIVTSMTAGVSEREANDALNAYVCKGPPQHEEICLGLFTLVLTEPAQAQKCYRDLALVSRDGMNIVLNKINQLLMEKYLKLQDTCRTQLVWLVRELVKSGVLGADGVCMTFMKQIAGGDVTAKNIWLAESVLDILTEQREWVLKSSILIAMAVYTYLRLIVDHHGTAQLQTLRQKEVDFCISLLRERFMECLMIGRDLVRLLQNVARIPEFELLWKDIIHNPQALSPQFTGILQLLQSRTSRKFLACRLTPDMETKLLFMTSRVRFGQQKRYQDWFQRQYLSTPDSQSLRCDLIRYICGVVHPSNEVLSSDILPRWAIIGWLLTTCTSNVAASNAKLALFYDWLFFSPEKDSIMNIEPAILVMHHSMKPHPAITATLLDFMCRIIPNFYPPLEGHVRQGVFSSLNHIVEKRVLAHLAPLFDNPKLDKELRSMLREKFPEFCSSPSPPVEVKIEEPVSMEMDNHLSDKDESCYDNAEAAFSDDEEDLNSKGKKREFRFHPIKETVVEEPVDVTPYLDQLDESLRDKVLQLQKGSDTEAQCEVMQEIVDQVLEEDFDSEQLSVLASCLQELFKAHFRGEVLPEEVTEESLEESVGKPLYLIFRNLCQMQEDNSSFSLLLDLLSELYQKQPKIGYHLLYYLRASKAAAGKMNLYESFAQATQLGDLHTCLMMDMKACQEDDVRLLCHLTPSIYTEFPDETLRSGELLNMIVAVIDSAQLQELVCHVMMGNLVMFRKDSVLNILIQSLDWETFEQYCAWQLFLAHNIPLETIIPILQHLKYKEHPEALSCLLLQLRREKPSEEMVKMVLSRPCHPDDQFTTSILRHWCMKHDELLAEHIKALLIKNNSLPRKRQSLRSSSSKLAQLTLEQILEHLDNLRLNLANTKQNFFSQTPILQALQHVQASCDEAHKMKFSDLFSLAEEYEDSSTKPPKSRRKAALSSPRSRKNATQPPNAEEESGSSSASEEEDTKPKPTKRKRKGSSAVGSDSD
Dnmt3l (mouse), sequence (Q9CWR8 whole entry): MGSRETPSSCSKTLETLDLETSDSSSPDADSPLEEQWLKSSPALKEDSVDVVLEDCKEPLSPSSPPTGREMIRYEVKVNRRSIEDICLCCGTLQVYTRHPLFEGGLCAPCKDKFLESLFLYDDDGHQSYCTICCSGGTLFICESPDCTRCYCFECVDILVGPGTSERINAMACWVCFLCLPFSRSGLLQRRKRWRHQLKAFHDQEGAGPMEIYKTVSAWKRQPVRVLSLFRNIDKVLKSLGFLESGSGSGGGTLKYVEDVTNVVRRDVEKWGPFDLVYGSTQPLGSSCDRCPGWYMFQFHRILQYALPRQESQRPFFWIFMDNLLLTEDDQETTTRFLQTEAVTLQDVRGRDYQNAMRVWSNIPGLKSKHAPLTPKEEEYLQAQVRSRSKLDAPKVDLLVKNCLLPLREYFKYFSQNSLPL
Pum2 (mouse), sequence (Q80U58 whole entry): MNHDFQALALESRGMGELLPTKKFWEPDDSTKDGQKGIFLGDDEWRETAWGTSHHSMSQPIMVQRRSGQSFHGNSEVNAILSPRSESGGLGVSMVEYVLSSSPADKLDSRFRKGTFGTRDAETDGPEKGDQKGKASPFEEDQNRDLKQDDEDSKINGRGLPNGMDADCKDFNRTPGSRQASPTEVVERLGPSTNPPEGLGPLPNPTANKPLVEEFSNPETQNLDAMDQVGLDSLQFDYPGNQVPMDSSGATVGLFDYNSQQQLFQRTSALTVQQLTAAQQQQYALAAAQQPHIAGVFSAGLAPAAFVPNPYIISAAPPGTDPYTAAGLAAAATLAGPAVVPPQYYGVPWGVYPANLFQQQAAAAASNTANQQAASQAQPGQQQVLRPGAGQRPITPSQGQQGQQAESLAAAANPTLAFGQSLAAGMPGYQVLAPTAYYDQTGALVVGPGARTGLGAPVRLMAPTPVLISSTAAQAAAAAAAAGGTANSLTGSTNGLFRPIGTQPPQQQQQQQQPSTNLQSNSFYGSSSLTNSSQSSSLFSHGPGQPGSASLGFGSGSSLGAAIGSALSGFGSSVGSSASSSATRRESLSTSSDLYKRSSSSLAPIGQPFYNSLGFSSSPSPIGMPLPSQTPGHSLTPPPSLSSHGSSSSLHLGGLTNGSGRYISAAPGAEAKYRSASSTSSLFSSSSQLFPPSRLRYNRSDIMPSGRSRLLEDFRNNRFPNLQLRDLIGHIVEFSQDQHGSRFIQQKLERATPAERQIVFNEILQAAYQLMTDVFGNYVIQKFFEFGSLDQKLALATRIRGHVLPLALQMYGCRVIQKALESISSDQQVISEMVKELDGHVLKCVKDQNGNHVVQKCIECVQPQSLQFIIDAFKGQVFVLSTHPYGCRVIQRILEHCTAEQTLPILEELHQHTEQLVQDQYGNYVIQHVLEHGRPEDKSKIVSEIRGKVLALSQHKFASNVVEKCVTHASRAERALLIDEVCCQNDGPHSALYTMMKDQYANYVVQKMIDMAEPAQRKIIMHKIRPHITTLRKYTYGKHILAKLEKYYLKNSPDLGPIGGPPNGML
Utf1 (mouse), sequence (Q6J1H4 whole entry): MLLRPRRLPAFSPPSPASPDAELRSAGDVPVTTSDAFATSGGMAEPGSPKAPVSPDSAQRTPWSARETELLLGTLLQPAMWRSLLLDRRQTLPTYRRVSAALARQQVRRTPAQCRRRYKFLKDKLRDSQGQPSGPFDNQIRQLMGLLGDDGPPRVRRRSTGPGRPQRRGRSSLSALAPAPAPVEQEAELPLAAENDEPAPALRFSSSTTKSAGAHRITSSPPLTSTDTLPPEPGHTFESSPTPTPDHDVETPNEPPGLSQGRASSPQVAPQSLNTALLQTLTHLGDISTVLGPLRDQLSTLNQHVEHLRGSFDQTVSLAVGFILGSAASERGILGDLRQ
Ranbp1 (mouse), sequence (P34022 2-203 limits assumed): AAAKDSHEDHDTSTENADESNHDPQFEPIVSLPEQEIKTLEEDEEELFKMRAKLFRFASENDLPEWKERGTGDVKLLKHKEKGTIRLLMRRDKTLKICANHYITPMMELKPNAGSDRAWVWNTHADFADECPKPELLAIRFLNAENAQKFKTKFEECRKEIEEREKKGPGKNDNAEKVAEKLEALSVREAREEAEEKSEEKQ

Nucleus peptide (Smc4 (mouse)): 1 peptides | Nucleus spectra (Smc4 (mouse)): 2 spectra | Nucleus peptide (Pum2 (mouse)): 1 peptides | Nucleus spectra (Pum2 (mouse)): 1 spectra | Nucleus peptide (Eef2 (mouse)): 6 peptides | Nucleus spectra (Eef2 (mouse)): 9 spectra | Nucleus peptide (Cbx5 (mouse)): 2 peptides | Nucleus spectra (Cbx5 (mouse)): 3 spectra | Nucleus peptide (Supt5h (mouse)): 1 peptides | Nucleus spectra (Supt5h (mouse)): 1 spectra | Nucleus peptide (Mcm6 (mouse)): 8 peptides | Nucleus spectra (Mcm6 (mouse)): 12 spectra | Nucleus peptide (Rcc1 (mouse)): 3 peptides | Nucleus spectra (Rcc1 (mouse)): 6 spectra | Nucleus peptide (Hspa5 (mouse)): 10 peptides | Nucleus spectra (Hspa5 (mouse)): 13 spectra | Nucleus peptide (Ssr1 (mouse)): 0 peptides | Nucleus spectra (Ssr1 (mouse)): 0 spectra | Nucleus peptide (Cct6a (mouse)): 6 peptides | Nucleus spectra (Cct6a (mouse)): 9 spectra | Nucleus peptide (Cct2 (mouse)): 2 peptides | Nucleus spectra (Cct2 (mouse)): 4 spectra | Nucleus peptide (Prpf4 (mouse)): 2 peptides | Nucleus spectra (Prpf4 (mouse)): 2 spectra | Nucleus peptide [1]: 1 peptides | Nucleus spectra [1]: 2 spectra | Nucleus peptide (Kpnb1 (mouse)): 5 peptides | Nucleus spectra (Kpnb1 (mouse)): 13 spectra | Nucleus peptide (Ssrp1 (mouse)): 2 peptides | Nucleus spectra (Ssrp1 (mouse)): 4 spectra | Nucleus peptide (Dars (mouse)): 1 peptides | Nucleus spectra (Dars (mouse)): 2 spectra | Nucleus peptide (Mcm4 (mouse)): 2 peptides | Nucleus spectra (Mcm4 (mouse)): 2 spectra | Nucleus peptide (Dync1h1 (mouse)): 0 peptides | Nucleus spectra (Dync1h1 (mouse)): 0 spectra | Nucleus peptide (Ywhae (mouse)): 1 peptides | Nucleus spectra (Ywhae (mouse)): 1 spectra | Nucleus peptide (Utf1 (mouse)): 4 peptides | Nucleus spectra (Utf1 (mouse)): 6 spectra | Nucleus peptide (Dnmt3l (mouse)): 2 peptides | Nucleus spectra (Dnmt3l (mouse)): 4 spectra | Nucleus peptide (Tmem48 (mouse)): 1 peptides | Nucleus spectra (Tmem48 (mouse)): 1 spectra | Nucleus peptide (Upf1 (mouse)): 2 peptides | Nucleus spectra (Upf1 (mouse)): 3 spectra | Nucleus peptide (Akr1b3 (mouse)): 2 peptides | Nucleus spectra (Akr1b3 (mouse)): 2 spectra | Nucleus peptide (Gm1040 (mouse)): 1 peptides | Nucleus spectra (Gm1040 (mouse)): 1 spectra | Nucleus peptide (Ranbp1 (mouse)): 1 peptides | Nucleus spectra (Ranbp1 (mouse)): 2 spectra | Nucleus peptide (Cttn (mouse)): 1 peptides | Nucleus spectra (Cttn (mouse)): 2 spectra | Nucleus peptide (Aff1 (mouse)): 0 peptides | Nucleus spectra (Aff1 (mouse)): 0 spectra | Nucleus peptide (Zfp281 (mouse)): 3 peptides | Nucleus spectra (Zfp281 (mouse)): 5 spectra | Nucleus peptide (Wapal (mouse)): 0 peptides | Nucleus spectra (Wapal (mouse)): 0 spectra | Nucleus peptide (Ints3 (mouse)): 0 peptides | Nucleus spectra (Ints3 (mouse)): 0 spectra | Nucleus peptide (Smpd4 (mouse)): 4 peptides | Nucleus spectra (Smpd4 (mouse)): 8 spectra | Nucleus peptide (Akap8 (mouse)): 0 peptides | Nucleus spectra (Akap8 (mouse)): 0 spectra | Nucleus peptide (Cct7 (mouse)): 0 peptides | Nucleus spectra (Cct7 (mouse)): 0 spectra | Nucleus peptide (Hmga1 (mouse)): 1 peptides | Nucleus spectra (Hmga1 (mouse)): 8 spectra | Nucleus peptide (Pum1 (mouse)): 0 peptides | Nucleus spectra (Pum1 (mouse)): 0 spectra | Nucleus peptide (Etl4 (mouse)): 0 peptides | Nucleus spectra (Etl4 (mouse)): 0 spectra | Nucleus peptide (Ruvbl1 (mouse)): 9 peptides | Nucleus spectra (Ruvbl1 (mouse)): 17 spectra | Nucleus peptide (Mtap1b (mouse)): 0 peptides | Nucleus spectra (Mtap1b (mouse)): 0 spectra | Nucleus peptide (Pfkl (mouse)): 1 peptides | Nucleus spectra (Pfkl (mouse)): 1 spectra
Substance: 2x Flag tag only (control) (peptide)

Nucleus peptide (Smc4 (mouse)): 5 peptides | Nucleus spectra (Smc4 (mouse)): 7 spectra | Nucleus peptide (Pum2 (mouse)): 2 peptides | Nucleus spectra (Pum2 (mouse)): 5 spectra | Nucleus peptide (Eef2 (mouse)): 13 peptides | Nucleus spectra (Eef2 (mouse)): 24 spectra | Nucleus peptide (Cbx5 (mouse)): 4 peptides | Nucleus spectra (Cbx5 (mouse)): 12 spectra | Nucleus peptide (Supt5h (mouse)): 6 peptides | Nucleus spectra (Supt5h (mouse)): 11 spectra | Nucleus peptide (Mcm6 (mouse)): 13 peptides | Nucleus spectra (Mcm6 (mouse)): 29 spectra | Nucleus peptide (Rcc1 (mouse)): 7 peptides | Nucleus spectra (Rcc1 (mouse)): 16 spectra | Nucleus peptide (Hspa5 (mouse)): 13 peptides | Nucleus spectra (Hspa5 (mouse)): 30 spectra | Nucleus peptide (Ssr1 (mouse)): 3 peptides | Nucleus spectra (Ssr1 (mouse)): 9 spectra | Nucleus peptide (Cct6a (mouse)): 9 peptides | Nucleus spectra (Cct6a (mouse)): 20 spectra | Nucleus peptide (Cct2 (mouse)): 8 peptides | Nucleus spectra (Cct2 (mouse)): 17 spectra | Nucleus peptide (Prpf4 (mouse)): 4 peptides | Nucleus spectra (Prpf4 (mouse)): 5 spectra | Nucleus peptide [1]: 3 peptides | Nucleus spectra [1]: 9 spectra | Nucleus peptide (Kpnb1 (mouse)): 15 peptides | Nucleus spectra (Kpnb1 (mouse)): 43 spectra | Nucleus peptide (Ssrp1 (mouse)): 9 peptides | Nucleus spectra (Ssrp1 (mouse)): 18 spectra | Nucleus peptide (Dars (mouse)): 4 peptides | Nucleus spectra (Dars (mouse)): 6 spectra | Nucleus peptide (Mcm4 (mouse)): 6 peptides | Nucleus spectra (Mcm4 (mouse)): 13 spectra | Nucleus peptide (Dync1h1 (mouse)): 16 peptides | Nucleus spectra (Dync1h1 (mouse)): 21 spectra | Nucleus peptide (Ywhae (mouse)): 3 peptides | Nucleus spectra (Ywhae (mouse)): 6 spectra | Nucleus peptide (Utf1 (mouse)): 7 peptides | Nucleus spectra (Utf1 (mouse)): 16 spectra | Nucleus peptide (Dnmt3l (mouse)): 4 peptides | Nucleus spectra (Dnmt3l (mouse)): 10 spectra | Nucleus peptide (Tmem48 (mouse)): 3 peptides | Nucleus spectra (Tmem48 (mouse)): 4 spectra | Nucleus peptide (Upf1 (mouse)): 5 peptides | Nucleus spectra (Upf1 (mouse)): 8 spectra | Nucleus peptide (Akr1b3 (mouse)): 4 peptides | Nucleus spectra (Akr1b3 (mouse)): 11 spectra | Nucleus peptide (Gm1040 (mouse)): 5 peptides | Nucleus spectra (Gm1040 (mouse)): 8 spectra | Nucleus peptide (Ranbp1 (mouse)): 2 peptides | Nucleus spectra (Ranbp1 (mouse)): 7 spectra | Nucleus peptide (Cttn (mouse)): 4 peptides | Nucleus spectra (Cttn (mouse)): 9 spectra | Nucleus peptide (Aff1 (mouse)): 3 peptides | Nucleus spectra (Aff1 (mouse)): 6 spectra | Nucleus peptide (Zfp281 (mouse)): 14 peptides | Nucleus spectra (Zfp281 (mouse)): 49 spectra | Nucleus peptide (Wapal (mouse)): 18 peptides | Nucleus spectra (Wapal (mouse)): 41 spectra | Nucleus peptide (Ints3 (mouse)): 4 peptides | Nucleus spectra (Ints3 (mouse)): 5 spectra | Nucleus peptide (Smpd4 (mouse)): 9 peptides | Nucleus spectra (Smpd4 (mouse)): 17 spectra | Nucleus peptide (Akap8 (mouse)): 4 peptides | Nucleus spectra (Akap8 (mouse)): 12 spectra | Nucleus peptide (Cct7 (mouse)): 3 peptides | Nucleus spectra (Cct7 (mouse)): 5 spectra | Nucleus peptide (Hmga1 (mouse)): 5 peptides | Nucleus spectra (Hmga1 (mouse)): 18 spectra | Nucleus peptide (Pum1 (mouse)): 2 peptides | Nucleus spectra (Pum1 (mouse)): 5 spectra | Nucleus peptide (Etl4 (mouse)): 7 peptides | Nucleus spectra (Etl4 (mouse)): 13 spectra | Nucleus peptide (Ruvbl1 (mouse)): 13 peptides | Nucleus spectra (Ruvbl1 (mouse)): 37 spectra | Nucleus peptide (Mtap1b (mouse)): 11 peptides | Nucleus spectra (Mtap1b (mouse)): 24 spectra | Nucleus peptide (Pfkl (mouse)): 6 peptides | Nucleus spectra (Pfkl (mouse)): 10 spectra
Substance: human AID containing two tandem Flag tags (Flag-human AID) (from UniProt Q9GZX7 1-198) (enzyme)
